Source: patent US20260055369A1, “METHOD FOR GENERATING CELLS OF THE T CELL LINEAGE WITH ENGINEERING BROADLY REACTIVE HUMAN NOTCH LIGAND” (H. Lee Moffitt Cancer Center and Research Institute, Inc., priority 2022, published 2026)

B1: DLL4.v2: human DLL4 clone with five mutations N257P, T271L, F280Y, S301R, Q305P; matches SEQ ID NO: 5 (protein)
chain: SGVFQLQLQEFINERGVLASGRPCEPGCRTFFRVCLKHFQAVVSPGPCTFGTVSTPVLGTNSAVRDDSSGGGRNPLQLPFNFTWPGTFSLIIEAWHAPGDDLRPEALPPDALISKIAIQGSLAVGQNWLLDEQTSTLTRLRYSYRVICSDNYYGDNCSRLCKKRNDHFGHYVCQPDGNLSCLPGWTGEYCQQPICLSGCHEQNGYCSKPAECLCRPGWQGRLCNECIPHPGCRHGTCSTPWQCLCDEGWGGLYCDQDLNYCTHHSPCKNGATCRNSGPRSYTCTCRPGYTGVDCELELSECDSNPCRNGGSCKDQEDGYHCLCPPGYYGLHCEHSTLSCADSPCFNGGSCRERNQGANYACECPPNFTGSNCE
B2: DLL4.v1: human DLL4 construct containing the five E12 mutations (Site 1+Site 2); sequence matches SEQ ID NO: 2 (protein)
chain: SSVFQLQLQEFINERGVLASGRPCEPGCRTFFRVCLKHFQAVVSPGPCTFGTVSTPVLGTNSFAVRDDSSGGGRNPLQLPLNFTWPGTFSLIIEAWHAPGDDLRPEALPPDALISKFAIQGSLAVGQNWLLDEQTSTLTRLRYSYRVICSDNYYGDNCSRLCKKRNDYFGHYVCQPDGNPSCLPGWTGEYCQQPICLSGCHEQNGYCSKPAECLCRPGWQGRLCNECIPHNGCRHGTCSTPWQCTCDEGWGGLFCDQDLNYCTHHSPCKNGATCSNSGQRSYTCTCRPGYTGVDCELELSECDSNPCRNGGSCKDQEDGYHCLCPPGYYGLHCEHSTLSCADSPCFNGGSCRERNQGANYACECPPNFTGSNCE

System: Notch1 (EGF6-13)
Sequence (P46531 257-526 limits assumed): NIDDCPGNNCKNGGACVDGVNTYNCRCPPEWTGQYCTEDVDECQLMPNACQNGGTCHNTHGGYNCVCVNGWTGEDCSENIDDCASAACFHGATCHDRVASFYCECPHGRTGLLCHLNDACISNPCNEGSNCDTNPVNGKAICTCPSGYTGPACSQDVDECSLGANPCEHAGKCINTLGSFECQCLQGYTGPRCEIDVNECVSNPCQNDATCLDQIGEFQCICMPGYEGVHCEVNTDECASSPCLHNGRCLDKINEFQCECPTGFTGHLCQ
Test: SPR determination of equilibrium dissociation constants
Assay type: binding, human
Settings: for off-rate from fitted SPR sensograms: series DLL4.v1, DLL4.v2, Delta^MAX, FIG. 2C Notch1 EGF6-13; for binding affinity compared to WT DLL4: stated for all four human Notch receptors (Notch1-4)
Experimental: Equilibrium dissociation constants were determined by surface plasmon resonance using a Biacore T200 instrument (GE Healthcare). Approximately 100 resonance units (RU) of biotinylated Notch extracellular fragments (Notch1 (EGF6-13), Notch2 (EGF6-13), Notch3 (EGF5-12), Notch4 (7-12), and mouse Notch1 (EGF6-13)) were immobilized on individual flow cells at 5 μl/min using a streptavidin-coated sensor chip (Series S Sensor chip SA, GE Healthcare). Three-fold serial dilutions of recombinant DLL4 proteins (N-EGF5) starting at 50 μM (WT DLL4), 18 μM (DLL4.v2), and 6 μM (DLL4.v1 and Delta^MAX) were flowed over the chip at 25° C. in SPR buffer (20 mM HEPES pH 7.4, 150 mM NaCl, 1 mM calcium chloride, 0.1% BSA supplemented with 0.005% surfactant P20). Association (“on-rate”) and dissociation (“off-rate”) phases were performed at 10 μl/min for 120 seconds and 300 seconds, respectively. The sensor chip was regenerated after each injection with 30-second washes of 2.25M Magnesium Chloride containing 25% Ethylene Glycol at 50 μL/min. Data collection rate was performed at 10 Hz, and curves were reference-subtracted from a flow cell containing 100 RU of a negative control non-related protein (biotinylated mouse RNF43 PA domain). The maximum RU for each experiment was normalized to a value of 100% and plotted as a function of concentration using Prism 9 software (GraphPad). Steady-state binding and kinetic curves were fitted using the Biacore T200 evaluation software to a 1:1 Langmuir model to determine the KD values.

Molecule	off-rate from fitted SPR sensograms	binding affinity compared to WT DLL4
B1	progressive decreases in off-rate	enhanced affinity
B2	progressive decreases in off-rate	enhanced affinity
